Earlier results in paper PMC3819593.

Key:
[1] = target: LLT1 (Homo sapiens) (UniProt Q9UHP7)
[2] = target: AICL (Homo sapiens) (UniProt Q92478)
Sequence of UniProt Q92478 (Q92478 whole entry): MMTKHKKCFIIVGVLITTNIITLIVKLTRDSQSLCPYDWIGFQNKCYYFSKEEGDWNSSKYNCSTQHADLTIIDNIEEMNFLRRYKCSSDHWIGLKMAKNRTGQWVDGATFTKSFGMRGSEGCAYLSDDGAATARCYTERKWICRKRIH

Sequence of UniProt Q9UHP7 (Q9UHP7 whole entry): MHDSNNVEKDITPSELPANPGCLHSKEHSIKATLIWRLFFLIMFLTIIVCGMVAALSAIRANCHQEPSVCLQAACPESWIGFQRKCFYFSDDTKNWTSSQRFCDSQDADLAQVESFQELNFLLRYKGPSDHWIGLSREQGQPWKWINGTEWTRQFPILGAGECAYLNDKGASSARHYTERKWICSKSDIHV

| Kd [1] [µM] | Kd [2] [µM] | Substance |
| --- | --- | --- |
| 48 | – | NKRP1A (from UniProt Q12918) |
| – | 4 | NKp80 (from UniProt Q9NZS2) |
